In the RNAGym collection of RNA variant scans (doi:10.1093/molbev/msab373):

B1: Azoarcus group I ribozyme (parent)
chain: GUGCCUUGCGCCGGGAAACCACGCAAGGGAUGGUGUCAAAUUCGGCGAAACCUAAGCGCCCGCCCGGGCGUAUGGCAACGCCGAGCCAAGCUUCGGCGCCUGCGCCGAUGAAGGUGUAGAGACUAGACGGCACCCACCUAAGGCAAACGCUAUGGUGAAGGCAUAGUCCAGGGAGUGGCGAAAGUCACACAAACCGG

Variants of: B1
Test: reverse-splicing fitness (ratio to wild type); higher = more active; in vitro selection; Mg2+ level not given
Method in brief: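 An in vitro group I ribozyme library with randomized positions was T7-transcribed and gel-purified. In triplicate, 10 pmol RNA in EPPS pH 7.5 was reacted with 50 pmoles of a 30-nt RNA substrate for 1 h at 37 °C across several added MgCl2 levels (1–48 mM), then stopped with EDTA. Products were reverse transcribed from a substrate-complementary primer, PCR-amplified and sequenced (HiSeq 4000). Fitness is a variant's read proportion after selection over that before, normalised to wild type.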

| Variant | reverse-splicing fitness |
| --- | --- |
| A120G A145C C150G U176G | 0.0061 |
| A120G A145C C150G U176A | 0.0444 |
| A120C U176A | 0.663 |
| A120C U176G | 0.244 |
| A120C U176C | 0.714 |
| A120C C150G C169G U176G | 0.0036 |
| A120C C150G C169G U176C | 0.00463 |
| A120C C150G C169G U176A | 0.0074 |
| A120C C150U C169G | 0.0172 |
| A120C C150U C169A | 0.0269 |
| A120C C150U C169U | 0.345 |
| A120C C169A | 0.0364 |
| A120C C169U | 0.435 |
| A120C C169G | 0.029 |
| A120G | 0.549 |
| A120C C150G C169U | 0.0809 |
| A120C C150G C169G | 0.00811 |
| A120C C150G C169A | 0.0115 |
| A120G A145C C150A U176C | 0.0279 |
| A120G A145C C150A U176G | 0.00611 |
| A120G A145C C150A U176A | 0.027 |

| Variant | reverse-splicing fitness |
| --- | --- |
| A120C C150G | 0.187 |
| A120C C150A | 0.241 |
| A120C C150U | 0.723 |
| A120C A145U U176C | 0.7 |
| A120C A145U U176G | 0.318 |
| A120C A145U U176A | 0.726 |
| A120G A145C C150A C169G U176C | 0.0391 |
| A120G A145C C150A C169G U176G | 0.00572 |
| A120G A145C C150A C169G U176A | 0.0447 |
| A120G A145G C150A C169A U176A | 0.0345 |
| A120G A145G C150A C169A U176C | 0.0558 |
| A120G A145G C150A C169A U176G | 0.00587 |
| A120G A145C C150A C169U | 0.0377 |
| A120G A145C C150A C169A | 0.029 |
| A120G A145C C150A C169G | 0.0475 |
| A120C C150A C169A U176G | 0.00451 |
| A120C C150A C169A U176C | 0.011 |
| A120C C150A C169A U176A | 0.0193 |
| A120G A145G C150G C169A | 0.0607 |
| A120G A145G C150G C169U | 0.094 |
| A120G A145G C150G C169G | 0.106 |

| Variant | reverse-splicing fitness |
| --- | --- |
| A120C C150U C169A U176C | 0.017 |
| A120C C150U C169A U176A | 0.0206 |
| A120C C150U C169A U176G | 0.00428 |
| A120C C150G C169U U176A | 0.0117 |
| A120C C150G C169U U176G | 0.00544 |
| A120C C150G C169U U176C | 0.0388 |
| A120C C150U U176G | 0.181 |
| A120C C150U U176C | 0.596 |
| A120C C150U U176A | 0.643 |
| A120C C150A C169G U176C | 0.0156 |
| A120C C150A C169G U176A | 0.0161 |
| A120C C150A C169G U176G | 0.00418 |
| A120G A145C C150G C169U U176C | 0.054 |
| A120G A145C C150G C169U U176G | 0.00576 |
| A120G A145C C150G C169U U176A | 0.0356 |
| A120G A145C C169G | 0.614 |
| A120G A145C C169A | 0.41 |
| A120G A145C C169U | 0.435 |
| A120C C150G C169A U176A | 0.0108 |
| A120C C150G C169A U176C | 0.00991 |
| A120C C150G C169A U176G | 0.00553 |

| Variant | reverse-splicing fitness |
| --- | --- |
| A120G A145C C169G U176C | 0.235 |
| A120G A145C C169G U176A | 0.202 |
| A120G A145C C169G U176G | 0.0119 |
| A120G A145C C150G C169A U176C | 0.031 |
| A120G A145C C150G C169A U176G | 0.00448 |
| A120G A145C C150G C169A U176A | 0.016 |
| A120C C150A U176A | 0.184 |
| A120C C150A U176C | 0.195 |
| A120C C150A U176G | 0.0764 |
| A120G A145C C150G C169G U176A | 0.0244 |
| A120G A145C C150G C169G U176G | 0.00456 |
| A120G A145C C150G C169G U176C | 0.0117 |
| A120G A145C C150A C169A U176G | 0.00472 |
| A120G A145C C150A C169A U176A | 0.0162 |
| A120G A145C C150A C169A U176C | 0.0164 |
| A120G A145C C169U U176G | 0.0181 |
| A120G A145C C169U U176C | 0.19 |
| A120G A145C C169U U176A | 0.181 |
| A120G A145C C169A U176A | 0.0967 |
| A120G A145C C169A U176C | 0.157 |
| A120G A145C C169A U176G | 0.0075 |
